# Data: the supplement of paper PMC7125110
# ± gives the standard error. Fewer inactive variants are shown than the library holds.
# B1: glmS ribozyme (parent)
# chain: AUAAAAGCGCCAGAACUACAGAAAUGUAGUUGACGAGGAGGAGGUUUAUCGAAUUUUCGGCGGAUGCCUCCAAA
# Key:
# Details in all cases: with glucosamine-6-phosphate
# glucosamine-6-phosphate [1] = variants of: B1; experiment: self-cleavage kobs at 40 uM GlcN6P; higher = faster cleavage; RNA array
# Outline: (§1)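 Barcoded glmS ribozyme variants on sequenced MiSeq chips were transcribed in situ by E. coli RNA polymerase and tracked through a hybridised Cy3 probe at 37 °C. Glucosamine-6-phosphate (40 μM to 10 mM) in HEPES/KCl/Mg(OAc)2 buffer was flowed in, and tiles were imaged over ~14 h. Signals were normalised to baseline and to non-cleaving reference variants; per-tile medians were fit to one- or two-exponential decays to give kobs. kcat and KM came from weighted Michaelis–Menten fits across concentrations.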
# glucosamine-6-phosphate [2] = variants of: B1; experiment: self-cleavage kobs at 160 uM GlcN6P; higher = faster cleavage; RNA array
# Outline: as §1
# glucosamine-6-phosphate [3] = variants of: B1; experiment: self-cleavage kobs at 640 uM GlcN6P; higher = faster cleavage; RNA array
# Outline: as §1
# glucosamine-6-phosphate [4] = variants of: B1; experiment: self-cleavage kobs at 2500 uM GlcN6P; higher = faster cleavage; RNA array
# Outline: as §1
# glucosamine-6-phosphate [5] = variants of: B1; experiment: self-cleavage kobs at 10000 uM GlcN6P; higher = faster cleavage; RNA array
# Outline: as §1
Variant,self-cleavage kobs at 40 uM GlcN6P (glucosamine-6-phosphate [1]),self-cleavage kobs at 160 uM GlcN6P (glucosamine-6-phosphate [2]),self-cleavage kobs at 640 uM GlcN6P (glucosamine-6-phosphate [3]),self-cleavage kobs at 2500 uM GlcN6P (glucosamine-6-phosphate [4]),self-cleavage kobs at 10000 uM GlcN6P (glucosamine-6-phosphate [5])
G51C G59U,< 1e-05 s⁻¹,< 1e-05 s⁻¹,< 1e-05 s⁻¹,,
A36C G41U G51A G60U,< 1e-05 s⁻¹,,< 1e-05 s⁻¹,< 1e-05 s⁻¹,
C8A A36U A64U C70U,< 1e-05 s⁻¹,,< 1e-05 s⁻¹,< 1e-05 s⁻¹,
C34U A53G,< 1e-05 s⁻¹,,,,< 1e-05 s⁻¹
G32U G62A,< 1e-05 s⁻¹,,< 1e-05 s⁻¹,< 1e-05 s⁻¹,< 1e-05 s⁻¹
A6G G51A,< 1e-05 s⁻¹,< 1e-05 s⁻¹,< 1e-05 s⁻¹,< 1e-05 s⁻¹,< 1e-05 s⁻¹
C8U A64U,< 1e-05 s⁻¹,< 1e-05 s⁻¹,< 1e-05 s⁻¹,< 1e-05 s⁻¹,< 1e-05 s⁻¹
C16A U55A,7.92e-05 ± 1.5e-05 s⁻¹,,,0.000515 ± 0.00022 s⁻¹,0.00285 ± 0.00043 s⁻¹
A12U C16U G62A,< 1e-05 s⁻¹,,,,
G13C U31A G40U,< 1e-05 s⁻¹,,< 1e-05 s⁻¹,,
A14G U54C U69C,0.000416 ± 9.9e-05 s⁻¹,,0.0011 ± 0.00044 s⁻¹,0.000161 ± 5.8e-05 s⁻¹,0.0047 ± 0.0013 s⁻¹
G7U A42U G44C,< 1e-05 s⁻¹,,,,< 1e-05 s⁻¹
A33G U56A,< 1e-05 s⁻¹,< 1e-05 s⁻¹,< 1e-05 s⁻¹,,< 1e-05 s⁻¹
C34U U65A,< 1e-05 s⁻¹,< 1e-05 s⁻¹,< 1e-05 s⁻¹,,< 1e-05 s⁻¹
C8A G9A A33U,< 1e-05 s⁻¹,,,,
G37A C50A G59A G66A,< 1e-05 s⁻¹,,,,
G13A A15C G38U A48G A52C,< 1e-05 s⁻¹,,,,< 1e-05 s⁻¹
A14C A64C G66A,< 1e-05 s⁻¹,< 1e-05 s⁻¹,,,
A6U G29U G38A C58A,< 1e-05 s⁻¹,,,,
G35U G43U U54A,< 1e-05 s⁻¹,,,,< 1e-05 s⁻¹
G59A G60U C61A,< 1e-05 s⁻¹,,< 1e-05 s⁻¹,< 1e-05 s⁻¹,
C8G G9C C16A G38A G40U U49G U57C,< 1e-05 s⁻¹,,,,< 1e-05 s⁻¹

Variant,self-cleavage kobs at 40 uM GlcN6P (glucosamine-6-phosphate [1]),self-cleavage kobs at 160 uM GlcN6P (glucosamine-6-phosphate [2]),self-cleavage kobs at 640 uM GlcN6P (glucosamine-6-phosphate [3]),self-cleavage kobs at 2500 uM GlcN6P (glucosamine-6-phosphate [4]),self-cleavage kobs at 10000 uM GlcN6P (glucosamine-6-phosphate [5])
A6U U55C C71A,< 1e-05 s⁻¹,,,,
C50G C70A C71G,7.15e-05 ± 1.7e-05 s⁻¹,,,,6.95e-05 ± 1.6e-05 s⁻¹
C16G G29U U46G,4.6e-05 ± 1.8e-05 s⁻¹,,,,0.00136 ± 0.00039 s⁻¹
G7A A12U,< 1e-05 s⁻¹,< 1e-05 s⁻¹,,2.22e-05 ± 8.3e-06 s⁻¹,7.91e-05 ± 2e-05 s⁻¹
A14U C34G A42U U45C A53C,< 1e-05 s⁻¹,,,,< 1e-05 s⁻¹
A42G U45A U49C,< 1e-05 s⁻¹,,,,
G7A G13A,< 1e-05 s⁻¹,< 1e-05 s⁻¹,< 1e-05 s⁻¹,,< 1e-05 s⁻¹
G44A U69A,< 1e-05 s⁻¹,< 1e-05 s⁻¹,< 1e-05 s⁻¹,< 1e-05 s⁻¹,< 1e-05 s⁻¹
C16A C50G C68U,0.000143 ± 3.6e-05 s⁻¹,,,,0.000227 ± 6.2e-05 s⁻¹
A14U G51A U57C G60U A64G U65G,< 1e-05 s⁻¹,,,,
G35C G40U A64U,< 1e-05 s⁻¹,< 1e-05 s⁻¹,,< 1e-05 s⁻¹,
C16U C70U,0.00111 ± 0.00017 s⁻¹,0.000974 ± 0.0002 s⁻¹,0.00284 ± 0.0011 s⁻¹,0.00209 ± 0.0004 s⁻¹,0.00694 ± 0.0028 s⁻¹
G41A C68G,< 1e-05 s⁻¹,< 1e-05 s⁻¹,< 1e-05 s⁻¹,< 1e-05 s⁻¹,< 1e-05 s⁻¹
A6C C58U,< 1e-05 s⁻¹,< 1e-05 s⁻¹,,,< 1e-05 s⁻¹
A15G U45A,0.00128 ± 0.00026 s⁻¹,0.00318 ± 0.0012 s⁻¹,0.025 ± 0.0066 s⁻¹,0.046 ± 0.019 s⁻¹,0.098 ± 0.043 s⁻¹
A6G A12C U45G C58U G59C G62A C68G,< 1e-05 s⁻¹,,,,< 1e-05 s⁻¹
U56G C71A,8.72e-05 ± 1.6e-05 s⁻¹,0.000152 ± 4.1e-05 s⁻¹,0.000589 ± 0.00013 s⁻¹,0.000518 ± 0.00011 s⁻¹,0.00215 ± 0.0004 s⁻¹
U56G C71U,0.000303 ± 4.6e-05 s⁻¹,0.000762 ± 0.00016 s⁻¹,0.00222 ± 0.00042 s⁻¹,0.00323 ± 0.00056 s⁻¹,0.0163 ± 0.0024 s⁻¹
G43U C50U,< 1e-05 s⁻¹,< 1e-05 s⁻¹,< 1e-05 s⁻¹,< 1e-05 s⁻¹,< 1e-05 s⁻¹
C11G A36G C67U,< 1e-05 s⁻¹,,,,
C8A C11U A15U C50G U56A G63A,5.94e-05 ± 2e-05 s⁻¹,,,0.000104 ± 5.1e-05 s⁻¹,0.00011 ± 2.4e-05 s⁻¹
C11U C50A C70G,9.07e-05 ± 2.5e-05 s⁻¹,,0.000365 ± 8.8e-05 s⁻¹,0.000173 ± 6e-05 s⁻¹,5.4e-05 ± 1.6e-05 s⁻¹
